Results published in publication PMC7710921 (Structure (London, England : 1993), 2020).

How the values were obtained:
[1] = molecular target: unlabelled hTBP (human TATA-box Binding Protein) (human) (UniProt P20226); assay: single-molecule two-colour nanometer co-localisation
His-tagged Rap74 = molecular target: T1, His-tagged Rap74 (human, UniProt P35269 1-517); assay: reconstitution by refolding and Ni-NTA co-purification
T1 sequence (looked up): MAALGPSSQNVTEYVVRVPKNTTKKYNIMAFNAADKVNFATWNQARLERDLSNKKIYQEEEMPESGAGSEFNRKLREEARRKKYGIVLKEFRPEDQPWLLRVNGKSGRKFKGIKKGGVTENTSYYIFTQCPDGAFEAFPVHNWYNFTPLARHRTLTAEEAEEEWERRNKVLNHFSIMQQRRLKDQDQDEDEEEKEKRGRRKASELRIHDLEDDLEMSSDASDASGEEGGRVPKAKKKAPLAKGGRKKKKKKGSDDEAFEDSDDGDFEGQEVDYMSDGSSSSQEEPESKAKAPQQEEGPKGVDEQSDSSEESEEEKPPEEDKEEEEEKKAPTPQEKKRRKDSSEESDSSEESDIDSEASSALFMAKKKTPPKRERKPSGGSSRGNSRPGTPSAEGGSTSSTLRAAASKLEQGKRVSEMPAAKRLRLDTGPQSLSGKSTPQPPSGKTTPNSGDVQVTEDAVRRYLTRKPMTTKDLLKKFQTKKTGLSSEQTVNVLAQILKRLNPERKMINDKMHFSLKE

Q: How did the percent of TFIIA spots co-localised with TATA-box DNA in the presence of TBP [1] turn out when “Alexa647-labelled hTFIIA (from UniProt P52655 1-376; P52657 1-109) (complex)” was run?
A: 45%

B1: Rap30 (natural protein, human, UniProt P13984 1-249, looked up)
chain: MAERGELDLTGAKQNTGVWLVKVPKYLSQQWAKASGRGEVGKLRIAKTQGRTEVSFTLNEDLANIHDIGGKPASVSAPREHPFVLQSVGGQTLTVFTESSSDKLSLEGIVVQRAECRPAASENYMRLKRLQIEESSKPVRLSQQLDKVVTTNYKPVANHQYNIEYERKKKEDGKRARADKQHVLDMLFSAFEKHQYYNLKDLVDITKQPVVYLKEILKEIGVQNVKGIHKNTWELKPEYRHYQGEEKSD
Q: Does B1 bind (His-tagged Rap74)?
A: binds
